pKd: −log10 of the molar value.
Experiments:
Assay in all cases: SPR (Biacore 2000), antibody immobilized on CM5 chip, Langmuir 1:1 model
[1] = molecular target: anti FITC-BSA human IgG1 (monoclonal, BioInvent International AB)
[2] = molecular target: anti FITC-BSA mouse IgG2a (monoclonal, BioInvent International AB)
polyclonal rabbit IgG = molecular target: polyclonal rabbit IgG

Zwt (recombinantly produced parental Z domain) (designed binder)
pKd [1]: 7.70
pKd [2]: 6.26
pKd (polyclonal rabbit IgG): 7.22
